Numbered stars: 1 amine (or outer) side, 2 acyl side, 3 side chain; on linkers, the order of the positions; unused ones are H or OH. Bridge positions count the residues as written; N and C are the ends. Side chains are listed from the residue outwards. Ends that are not written are not given here. * marks the point of attachment. C20 diacid = O=C(O)CCCCCCCCCCCCCCCCCCC(=O)*; γGlu = O=C(O)[C@H](CCC(=O)[*:2])N[*:1]; AEEA = NCCOCCOCC(=O)O
What was measured:
[1] = biological target: T1, human calcitonin receptor (human, UniProt P30988 25-474); assay: cell-based or functional assay
T1 sequence (looked up): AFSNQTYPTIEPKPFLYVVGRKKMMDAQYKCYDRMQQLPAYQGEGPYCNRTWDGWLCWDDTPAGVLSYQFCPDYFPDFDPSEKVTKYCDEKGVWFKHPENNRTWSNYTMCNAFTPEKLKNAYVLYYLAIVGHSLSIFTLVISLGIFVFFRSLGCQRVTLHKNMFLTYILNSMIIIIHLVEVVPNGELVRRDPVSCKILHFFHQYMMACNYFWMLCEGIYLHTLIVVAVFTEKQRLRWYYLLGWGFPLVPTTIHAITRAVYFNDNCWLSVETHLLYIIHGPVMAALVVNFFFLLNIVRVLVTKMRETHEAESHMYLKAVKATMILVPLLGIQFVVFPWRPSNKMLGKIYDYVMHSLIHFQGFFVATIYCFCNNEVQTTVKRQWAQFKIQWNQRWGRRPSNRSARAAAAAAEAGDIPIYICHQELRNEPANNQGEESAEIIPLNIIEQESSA

[2] = biological target: T2, human amylin receptor (amylin 3(a) receptor: human calcitonin receptor co-expressed with RAMP-3) (human, UniProt P30988 25-474; O60896 24-148, limits assumed); assay: cell-based or functional assay
T2 sequence (looked up) 1: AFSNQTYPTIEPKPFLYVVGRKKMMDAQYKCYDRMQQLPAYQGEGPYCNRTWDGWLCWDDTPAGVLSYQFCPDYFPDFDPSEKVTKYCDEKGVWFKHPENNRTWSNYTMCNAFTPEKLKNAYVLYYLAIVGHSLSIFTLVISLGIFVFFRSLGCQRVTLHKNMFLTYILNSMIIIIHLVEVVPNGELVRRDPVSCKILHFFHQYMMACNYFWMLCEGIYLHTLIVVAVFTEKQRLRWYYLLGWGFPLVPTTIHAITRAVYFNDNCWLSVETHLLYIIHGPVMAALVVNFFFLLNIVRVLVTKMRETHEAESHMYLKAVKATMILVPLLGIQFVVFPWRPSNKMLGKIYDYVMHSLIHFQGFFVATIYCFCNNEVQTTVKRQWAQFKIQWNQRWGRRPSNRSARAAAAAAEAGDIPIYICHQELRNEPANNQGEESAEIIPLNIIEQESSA
T2 sequence (looked up) 2: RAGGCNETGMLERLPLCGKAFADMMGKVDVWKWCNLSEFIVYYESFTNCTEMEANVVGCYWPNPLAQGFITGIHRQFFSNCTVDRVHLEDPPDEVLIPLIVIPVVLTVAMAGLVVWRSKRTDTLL

Binder | hCTR funct. EC50 [1] [nM] | hAmylin-R funct. EC50 [2] [nM]
K([AEEA-γGlu-C20 diacid])CNTATCATQRLANFLRHSSPNFGAIPSSTNVGRNTY-NH2 (disulfide 2-7; N-terminus assumed; SMILES CC[C@H](C)[C@H](NC(=O)[C@H](C)NC(=O)CNC(=O)[C@H](Cc1ccccc1)NC(=O)[C@H](CC(N)=O)NC(=O)[C@@H]1CCCN1C(=O)[C@H](CO)NC(=O)[C@H](CO)NC(=O)[C@H](Cc1c[nH]cn1)NC(=O)[C@H](CCCNC(=N)N)NC(=O)[C@H](CC(C)C)NC(=O)[C@H](Cc1ccccc1)NC(=O)[C@H](CC(N)=O)NC(=O)[C@H](C)NC(=O)[C@H](CC(C)C)NC(=O)[C@H](CCCNC(=N)N)NC(=O)[C@H](CCC(N)=O)NC(=O)[C@@H](NC(=O)[C@H](C)NC(=O)[C@@H]1CSSC[C@H](NC(=O)[C@@H](N)CCCCNC(=O)COCCOCCNC(=O)CC[C@H](NC(=O)CCCCCCCCCCCCCCCCCCC(=O)O)C(=O)O)C(=O)N[C@@H](CC(N)=O)C(=O)N[C@@H]([C@@H](C)O)C(=O)N[C@@H](C)C(=O)N[C@@H]([C@@H](C)O)C(=O)N1)[C@@H](C)O)C(=O)N1CCC[C@H]1C(=O)N[C@@H](CO)C(=O)N[C@@H](CO)C(=O)N[C@H](C(=O)N[C@@H](CC(N)=O)C(=O)N[C@H](C(=O)NCC(=O)N[C@@H](CCCNC(=N)N)C(=O)N[C@@H](CC(N)=O)C(=O)N[C@H](C(=O)N[C@@H](Cc1ccc(O)cc1)C(N)=O)[C@@H](C)O)C(C)C)[C@@H](C)O, also called compound 78) | 8.17 | 0.316
K([AEEA-γGlu-C20 diacid])CNTATCATQRLANFLRHSSPNFGAIPSSTNVGHNTY-NH2 (disulfide 2-7; N-terminus assumed; SMILES CC[C@H](C)[C@H](NC(=O)[C@H](C)NC(=O)CNC(=O)[C@H](Cc1ccccc1)NC(=O)[C@H](CC(N)=O)NC(=O)[C@@H]1CCCN1C(=O)[C@H](CO)NC(=O)[C@H](CO)NC(=O)[C@H](Cc1c[nH]cn1)NC(=O)[C@H](CCCNC(=N)N)NC(=O)[C@H](CC(C)C)NC(=O)[C@H](Cc1ccccc1)NC(=O)[C@H](CC(N)=O)NC(=O)[C@H](C)NC(=O)[C@H](CC(C)C)NC(=O)[C@H](CCCNC(=N)N)NC(=O)[C@H](CCC(N)=O)NC(=O)[C@@H](NC(=O)[C@H](C)NC(=O)[C@@H]1CSSC[C@H](NC(=O)[C@@H](N)CCCCNC(=O)COCCOCCNC(=O)CC[C@H](NC(=O)CCCCCCCCCCCCCCCCCCC(=O)O)C(=O)O)C(=O)N[C@@H](CC(N)=O)C(=O)N[C@@H]([C@@H](C)O)C(=O)N[C@@H](C)C(=O)N[C@@H]([C@@H](C)O)C(=O)N1)[C@@H](C)O)C(=O)N1CCC[C@H]1C(=O)N[C@@H](CO)C(=O)N[C@@H](CO)C(=O)N[C@H](C(=O)N[C@@H](CC(N)=O)C(=O)N[C@H](C(=O)NCC(=O)N[C@@H](Cc1c[nH]cn1)C(=O)N[C@@H](CC(N)=O)C(=O)N[C@H](C(=O)N[C@@H](Cc1ccc(O)cc1)C(N)=O)[C@@H](C)O)C(C)C)[C@@H](C)O, also called compound 76) | 7.37 | 0.297
